Test results from article PMC3155616 (Cell, 2011).

Target: E. coli SSB (wild type single-stranded DNA binding protein, homotetramer) (E. coli, UniProt P0AGE0 1-178)
Assay: ITC

Sequence of E. coli SSB (wild type single-stranded DNA binding protein, homotetramer) (P0AGE0 whole entry): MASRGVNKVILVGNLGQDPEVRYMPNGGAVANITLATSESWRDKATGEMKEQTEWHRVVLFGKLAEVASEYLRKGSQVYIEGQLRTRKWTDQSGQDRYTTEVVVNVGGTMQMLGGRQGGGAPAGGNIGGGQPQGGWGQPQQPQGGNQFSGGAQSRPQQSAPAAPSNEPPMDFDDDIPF

B1: E. coli RecO protein (natural protein, UniProt P0A7H3 1-242, looked up)
chain: MEGWQRAFVLHSRPWSETSLMLDVFTEESGRVRLVAKGARSKRSTLKGALQPFTPLLLRFGGRGEVKTLRSAEAVSLALPLSGITLYSGLYINELLSRVLEYETRFSELFFDYLHCIQSLAGVTGTPEPALRRFELALLGHLGYGVNFTHCAGSGEPVDDTMTYRYREEKGFIASVVIDNKTFTGRQLKALNAREFPDADTLRAAKRFTRMALKPYLGGKPLKSRELFRQFMPKRTVKTHYE
B1 was tested, and the “stoichiometry N” value was 1 RecO per SSB C-terminal tail (four tails per tetramer).
